The source of these data is publication PMC11162790.

This data set deals with ArsR-P (phosphorylated His6-ArsR) (Helicobacter pylori SMI109). Nature of the data set: EMSA. To be noted: Buffer F: 50 mM Tris-acetate pH 7.5, 100 mM K-glutamate, 20 mM Mg-acetate, 5% glycerol, 0.1 ug poly dI-dC, 25 C, 30 min; EMSA 5-7 nM DNA, footprint 25 nM DNA.

In the case of PsabA SMI109 (T13, wt) 407 bp, the K half is 1350 nM.
